Data on 1 molecule can be found in US12264201B2, “Bispecific antibody targeting IL-1R1 and NLPR3” (University of Ulster, priority 2018, dated 2025).

Assay [1] relates to THP1 cells. The assay is described as follows: IL-1β release from LPS/ATP-stimulated differentiated THP1 cells (ELISA). The format is cell-based. As to conditions: PMA-differentiated THP1; LPS 1 μg/ml 3 h, Ab 30 min (0.0025-2.5 ng/ml or 1 nM), ATP 5 mM 1 h; supernatant ELISA; FIG. 33. Here is the method: THP1 cells, for FIGS. 33a and b, were cultured in 96-well plates at 100,000 cells/200 μl complete media. PMA (100 μg/ml for 72 hours) was used to differentiate THP-1 cells into macrophages. Following 24 hours of rest, differentiated THP1 cells were stimulated with LPS (1 μg/ml) for 3 hours, treated with MCC950 (1 μM) or the IL-1R1/NLRP3 Ab in a dose dependent fashion from 0.0025 ng/ml to 2.5 ng/ml for FIG. 33a or with IL-1R1/NLRP3 Ab (1 nM) for FIG. 33b or with IgG control antibody for 30 minutes, followed by ATP (5 mM) for 1 hour. IL-1β release was measured in the supernatant by ELISA.
Background: ELISA stands for enzyme-linked immunosorbent assay.

In assay [2] the test system is THP1 cells. Kind of assay: Caspase-1 activation in THP1 cells (FAM-FLICA staining, confocal). The format is cell-based. Here is the method: THP1 cells, for FIG. 34, were cultured in 96-well plates at 100,000cells/200 ul complete media. PMA (100 ug/ml for 72 hours) was used to differentiated THP-1 cells into macrophages. Following 24 hours of rest, differentiated THP1 cells were stimulated with LPS (1 ug/ml) for 3 hours, treated with the IL-1R1/NLRP3 Ab (1 μg/ml) for 30 minutes, followed by ATP (5 mM) for 1 hour. Caspase-1 activation was assessed by staining cells with a non-cytotoxic Fluorescent Labelled Inhibitor of Caspase-1 (FAM-FLICA) and DAPI (nuclear stain). Cells were treated with LPS alone (negative control), LPS+ATP (positive control), mouse IgG2a (1 ug/ml, Ab control), or IL-1r/NLRP3 bi-specific Ab (1 ug/ml, experimental). Representative confocal images are shown for each group. Green=active caspae-1 and blue=Dapi/nuclear stain.
Internalization of Inflamab—see FIG. 35. THP1 cells, for FIG. 35, were cultured in 96-well plates at 100,000cells/200 ul complete media. Differentiation of THP1 cells was induced by PMA (100 ug/ml for 72 hours). Following 24 hours of rest, differentiated THP1 cells were stimulated with LPS (1 ug/ml) for 3 hours, treated with a pHrodo red labelled IL-1r/NLRP3 Ab (1 ug/ml) for 30 minutes, followed by ATP (5 mM) for 1 hour. The internalization of the Ab was tracked using a pHrodo red labelled bi-specific Ab that only fluoresces when internalized.

The subject of a further assay is apoE−/− mice. Kind of assay: In vivo LPS challenge, serum IL-1β and TNF-α by ELISA. The settings on record: LPS 50 μg/kg i.v., FIG. 37. The procedure:
Female apoE−/− mice were fed a Western-type diet containing 0.25% cholesterol and 15% cacao butter (SDS, Sussex, UK) starting 1 week prior to treatment and throughout the experiment. Diet and water were provided ad libitum. After 1 week of diet feeding, mice were injected intraperitoneally with PBS or InflaMab (100 μg or 200 μg) administrated on day 10 and day 14. After 2 weeks of diet and a 1-week treatment mice were challenged intravenously with LPS (50 μg/kg, Salmonella minnesota R595, List Biological Laboratories Inc.) and blood was collected after 0.5, 1, 2 and 4 hours. After 4 hours mice were sacrificed and serum levels of IL-1β and TNF-α were measured by ELISA.
IL-1beta, but not TNFalpha, is inhibited in vivo via LPS challenge—see FIG. 37. Female apoE−/− mice, after 1 week on WTD, were injected intraperitoneally with PBS or InflaMab (100 μg or 200 μg) administrated on day 10 and day 14. After 2 weeks of diet and a 1-week treatment mice were challenged intravenously with LPS (50 μg/kg) and (a) IL-1β and (b) TNF-α were measured by ELISA.

B1: InflaMab: 210 kDa bispecific mouse antibody to IL-1R1 and NLRP3; light chain SEQ ID NO: 57, heavy chain with scFv SEQ ID NO: 59 (protein)
light: MVSSAQFLGLLLLCFQGTRCDIVMTQSPATLSVTPGDRVSLSCRASQSISDYLSWYQQRSHESPRLIIKYASQSISGIPSRFSGSGSGSDFTLSINSVEPEDVGVYYCQHGHSFPLTFGSGTKLELKRADAAPTVSIFPPSSEQLTSGGASVVCFLNNFYPKDINVKWKIDGSERQNGVLNSWTDQDSKDSTYSMSSTLTLTKDEYERHNSYTCEATHKTSTSPIVKSFNRNEC
heavy: MGWTLVFLFLLSVTAGVHSQIQLVQSGPELRKPGETVRISCKASGYPFTTAGLQWVQKMSGKGLKWIGWMNTQSEVPKYAEEFKGRIAFSLETAASTAYLQINNLKTEDTATYFCAKSVYFNWRYFDVWGAGTTVTVSSAKTTAPSVYPLAPVCGDTTGSSVTLGCLVKGYFPEPVTLTWNSGSLSSGVHTFPAVLQSDLYTLSSSVTVTSSTWPSQSITCNVAHPASSTKVDKKIEPRGPTIKPCPPCKCPAPNLLGGPSVFIFPPKIKDVLMISLSPIVTCVVVDVSEDDPDVQISWFVNNVEVHTAQTQTHREDYNSTLRVVSALPIQHQDWMSGKEFKCKVNNKDLPAPIERTISKPKGSVRAPQVYVLPPPEEEMTKKQVTLTCMVTDFMPEDIYVEWTNNGKTELNYKNTEPVLDSDGSYFMYSKLRVEKKNWVERNSYSCSVVHEGLHNHHTTKSFSRTPGKGSAGGSGGDSEVQLVESGGGLVKPGGSLKLSCAASGFTFSDYYMYWVRQTPEKRLEWVATISDGGTYTYYPDSVKGRFTISRDNAKNNLYLQMNSLKSEDTAMYYCARGWVSTMVKLLSSFPYWGQGTLVTVSAGGGGSGGGGSGGGGSQAVVTQESALTTSPGETVTLTCRSSTGAVTTSNYANWVQEKPDHLFTGLIGGTNNRAPGVPARFSGSLIGDKAALTITGAQTEDEAIYFCALWYSNYWVFGGGTKLTVLGQPK
For the molecule B1, the IL-1β release result in the assay on THP1 cells [1] is on record as “prevents”. Moreover, in the assay on THP1 cells [2] (differentiated THP1, LPS 1 ug/ml 3 h, Ab 1 μg/ml 30 min, ATP 5 mM 1 h, FAM-FLICA, FIG. 34), the caspase-1 activation result is on record as “prevents”. Moreover, the “caspase-1 activation in THP1 cells that have internalized the bi-specific Ab as compared to cells that did not” value in the assay on THP1 cells [2] (pHrodo red labelled Ab 1 ug/ml 30 min, LPS then ATP, confocal, FIG. 35B) is on record as “significant reduction”. Also, the “IL-1beta secretion in vivo” value in the assay on apoE−/− mice (female apoE−/− mice on Western-type diet, 100 μg or 200 μg i.p. day 10 and 14) was “specifically inhibit”. Also, in the assay with apoE−/− mice (female apoE−/− mice, 100 μg or 200 μg i.p., specificity), the “secretion of TNFalpha in vivo” value is reported as “no effect”.
